For 4 molecules, EC50 results are on record in patent publication US20190233517A1 (published 2019).

For assay [1], the target named is T1, CD20 on the cell surface of Raji cells (human, UniProt P11836 1-297).
T1 chain: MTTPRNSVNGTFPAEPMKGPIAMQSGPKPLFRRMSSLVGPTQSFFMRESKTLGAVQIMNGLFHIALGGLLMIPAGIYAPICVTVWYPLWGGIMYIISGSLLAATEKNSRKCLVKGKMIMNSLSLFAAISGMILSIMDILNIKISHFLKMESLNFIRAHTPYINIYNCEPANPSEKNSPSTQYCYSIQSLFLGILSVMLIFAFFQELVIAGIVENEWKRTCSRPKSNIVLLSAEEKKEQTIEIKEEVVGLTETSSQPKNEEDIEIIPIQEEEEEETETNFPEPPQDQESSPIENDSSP
Briefly: FACS binding; Raji cells. In general terms: Flow cytometry measures light scatter and fluorescence of single cells or particles in a stream.

For assay [2], the target named is T2, cynomolgus CD20 on transiently transfected HEK 293 cells (cynomolgus, UniProt M4ZHZ6 1-297).
T2 chain: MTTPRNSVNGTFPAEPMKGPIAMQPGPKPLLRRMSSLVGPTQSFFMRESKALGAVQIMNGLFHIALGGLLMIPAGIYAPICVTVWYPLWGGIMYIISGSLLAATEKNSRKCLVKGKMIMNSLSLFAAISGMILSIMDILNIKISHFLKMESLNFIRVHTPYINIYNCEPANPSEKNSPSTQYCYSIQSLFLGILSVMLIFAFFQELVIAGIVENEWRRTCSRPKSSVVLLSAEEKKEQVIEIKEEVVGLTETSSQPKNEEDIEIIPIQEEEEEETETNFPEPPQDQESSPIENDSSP
Briefly: FACS binding; 293F-cynoCD20 cells.

Assay [3] has as its target T1, CD20 on the cell surface of Raji cells. Briefly: FACS binding; Raji cells.
In assay [4] the target is T3, cynomolgus CD3 on primary cynomolgus T cells (UniProt Q95LI5 22-198).
T3 epsilon: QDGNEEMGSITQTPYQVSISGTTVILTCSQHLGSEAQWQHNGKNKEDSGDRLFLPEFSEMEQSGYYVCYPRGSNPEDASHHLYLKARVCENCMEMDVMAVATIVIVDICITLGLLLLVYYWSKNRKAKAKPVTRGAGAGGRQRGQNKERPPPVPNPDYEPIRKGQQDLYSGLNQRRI
Briefly: FACS binding; cyno T cells.

Assay [5] deals with T2, cynomolgus CD20 on transiently …. Briefly: FACS.
For assay [6], the target named is T3, cynomolgus CD3 on primary cynomolgus T …. Briefly: FACS.
Assay [7] deals with CD3 on the cell surface of Jurkat cells (human, UniProt P07766 23-207; P04234 22-171; P09693 23-182). Briefly: FACS binding; Jurkat cells.

Where two headings read alike, the source gives them in different places.

B1: FIT021b (antibody)
chain 1: not shown
chain 2: MEFGLSWLFLVAILKGVQCEVQLVESGGGLVQPGRSLRLSCAASGFTFNDYAMHWVRQAPGKGLEWVSTISWNSGSIGYADSVKGRFTISRDNAKKSLYLQMNSLRAEDTALYYCAKDIQYGNYYYGMDVWGQGTTVTVSSASTKGPSVFPLAPSSKSTSGGTAALGCLVKDYFPEPVTVSWNSGALTSGVHTFPAVLQSSGLYSLSSVVTVPSSSLGTQTYICNVNHKPSNTKVDKKVEPKSC
chain 3: MDMRVPAQLLGLLLLWFPGSRCDIQLTQSPSSLSASVGDRVTMSCKSSQSVLYSANHKNYLAWYQQKPGKAPKLLIYWASTRESGVPSRFSGSGSGTDFTFTISSLQPEDIATYYCHQYLSSWTFGGGTKLEIKRTVAAPSVFIFPPSDEQLKSGTASVVCLLNNFYPREAKVQWKVDNALQSGNSQESVTEQDSKDSTYSLSSTLTLSKADYEKHKVYACEVTHQGLSSPVTKSFNRGEC
As for B1, in assay [1], the EC50 amounted to 7.66 nM.

B2: FIT018a CD20 (Ofatumumab)/CD3 mAb (bispecific antibody)
chain 1: not shown
chain 2: EVQLVESGGGLVQPGRSLRLSCAASGFTFNDYAMHWVRQAPGKGLEWVSTISWNSGSIGYADSVKGRFTISRDNAKKSLYLQMNSLRAEDTALYYCAKDIQYGNYYYGMDVWGQGTTVTVSSASTKGPSVFPLAPSSKSTSGGTAALGCLVKDYFPEPVTVSWNSGALTSGVHTFPAVLQSSGLYSLSSVVTVPSSSLGTQTYICNVNHKPSNTKVDKKVEPKSC
chain 3: ELVVTQEPSLTVSPGGTVTLTCRSSTGAVTTSNYANWVQQKPGQAPRGLIGGTNKRAPGTPARFSGSLLGGKAALTLSGVQPEDEAEYYCALWYSNLWVFGGGTKLTVLGQPKAAPSVTLFPPSSEELQANKATLVCLISDFYPGAVTVAWKADSSPVKAGVETTTPSKQSNNKYAASSYLSLTPEQWKSHRSYSCQVTHEGSTVEKTVAPTECS
For B2, the values for the EC50 in assay [2], in assay [3] and in assay [4] were 14.3 nM, 0.0168 µM and 3.85 nM, respectively.

B3: anti-CD20 (Ofatumumab) (antibody, V domains shown)
VH: EVQLVESGGGLVQPGRSLRLSCAASGFTFNDYAMHWVRQAPGKGLEWVSTISWNSGSIGYADSVKGRFTISRDNAKKSLYLQMNSLRAEDTALYYCAKDIQYGNYYYGMDVWGQGTTVTVSS
VL: EIVLTQSPATLSLSPGERATLSCRASQSVSSYLAWYQQKPGQAPRLLIYDASNRATGIPARFSGSGSGTDFTLTISSLEPEDFAVYYCQQRSNWPITFGQGTRLEIK
Regarding B3, the figures for the EC50 in assay [5] and in assay [6] were 3.07 nM and 490 nM, respectively.

B4: CD3 mAb (described in US2009/0252683) (antibody, V domains shown)
VH: EVQLLESGGGLVQPGGSLKLSCAASGFTFNTYAMNWVRQAPGKGLEWVARIRSKYNNYATYYADSVKDRFTISRDDSKNTAYLQMNNLKTEDTAVYYCVRHGNFGNSYVSWFAYWGQGTLVTVSS
VL: ELVVTQEPSLTVSPGGTVTLTCRSSTGAVTTSNYANWVQQKPGQAPRGLIGGTNKRAPGTPARFSGSLLGGKAALTLSGVQPEDEAEYYCALWYSNLWVFGGGTKLTVL
With B4, the values for the EC50 in assay [3], in assay [7] and in assay [4] were approximately 8.16 µM, 0.848 nM and 1.15 nM, respectively.

One may read the EC50 as the concentration at which the effect is half-maximal. A low value points to higher potency in that assay.
